Among the data in paper PMC9061257 are stoichiometry N values, retold here.

This assay deals with pseudouridine kinase from Escherichia coli strain B (EcPUKI), wildtype (E. coli strain B) (UniProt P30235). Kind of assay: SEC.

As to “pseudouridine kinase from Escherichia coli strain B (EcPUKI), wildtype (from UniProt P30235 1-313) (enzyme)”, the stoichiometry N came out at 2.
